Reference: article PMC3983218

Biological target: EcoSSB (Escherichia coli, UniProt P0AGE0)
Test: EMSA; Complex I at low and Complex II at high SSB; 0.2, 2, 10 pmol tetramer, 1 pmol DNA; 20 mM Tris-HCl pH 8.0, 50 mM NaCl, 5% glycerol, 50 μg/ml BSA, 15 μl, 30 min at 4°C; 8% native PAGE in 1x TBE
Conditions: protein: recombinant; chain copies: 4; label: 5' 32P; single strand

EcoSSB, sequence (P0AGE0 whole entry): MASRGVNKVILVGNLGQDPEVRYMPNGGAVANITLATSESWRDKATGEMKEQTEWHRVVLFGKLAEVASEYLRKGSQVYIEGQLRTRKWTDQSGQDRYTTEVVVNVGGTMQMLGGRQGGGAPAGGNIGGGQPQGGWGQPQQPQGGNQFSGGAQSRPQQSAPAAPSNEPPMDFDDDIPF

B1: 79 mer ssDNA (ssDNA)
DNA: GCACTAGTGCGGATAGCCCCGTGTTGTTGTCTGACCCCCGACCCCGACGGCAATGCGGGGCAATCCCCTGGAGGCCTGC
B1: binds.
